The source of these data is patent US20090036380A1, “Composition And Method For Brain Tumor Therapy” (Yeda Research and Development Co., Ltd., priority 2006, published 2009).

The subject of one assay is TrkA. The assay is described as follows: Co-immunoprecipitation of HA-Karet constructs with TrkA. The class given is binding. The conditions noted are these: co-transfected Hek or NNR5 cells, anti-HA IP. As for the experimental part: FIG. 3c is a co-immunoprecipitation assay depicting co-immunoprecipitation of HA-Karet with TrkA in COS cells. Karet tagged with the HA epitope was immunoprecipitated with anti-HA antibody and the blot was incubated with anti-TrkA (RTA). In control experiments the HA-Karet was substituted with vector.
FIG. 3d is a co-immunoprecipitation assay depicting interaction of Karet and TrkA in NNR5 cells transfected with TrkA.
FIG. 3e is a co-immunoprecipitation assay depicting co-immunoprecipitation of HA-Karet with TricA in co-transfected NNR5 cells immunoprecipitated with anti-HA (Roche) and Western blot with the anti-TrkA antibody C14 (Santa Cruz).
FIGS. 4a-c are co-immunoprecipitation assay results depicting the influence of NGF treatment on TrkA-Karet interaction. FIG. 4a depicts that TrkA-Karet interaction occurred prior to NGF treatment and was enhanced after ligand stimulation for 10 minutes (10 m) or 2 hours (2 h). HA-Karet was electroporated into cell line PC12, and the cells were treated with 50 ng/ml NGF for the indicated time periods in order to activate p75 and TrkA. Karet tagged with the HA epitope was immunoprecipitated with anti-HA antibody, the precipitated proteins were separated electrophoretically, and gel blots were incubated with anti-TrkA antibody (RTA). […]

Assay [1] addresses 27 amino acid residue juxtamembrane region of TrkA (Homo sapiens, UniProt P04629). As to the kind of experiment: In-vitro affinity co-precipitation with biotinylated TrkA juxtamembrane peptide. Format: binding. Particulars: streptavidin beads, recombinant protein, versus two control peptides. The text has this: FIG. 8a is a co-immunoprecipitation analysis depicting interaction of Karet PTB domain with a juxtamembrane region of TrkA. Biotinylated synthetic peptide corresponding to the TrkA sequence in the juxtamembrane and control peptide were immobilized on streptavidin beads and then used to precipitate recombinant Karet protein. Precipitates were washed, eluted and bound Karet was visualized by Western blot with anti-His antibody.
FIG. 8b is an in-vitro affinity co-precipitation Western blot depicting that the isolated N-terminal PTB domain of Karet specifically interacts with a […] residue juxtamembrane region of TrkA having the sequence Biotinylated synthetic peptides corresponding to a 27 amino acid residue juxtamembrane region of TrkA having the sequence […] (SEQ ID NO: 10), and two control peptides were immobilized on streptavidin beads, and then used to precipitate recombinant PTB domain-containing Karet(1-228) truncation mutant. Precipitates were washed, eluted and bound Karet(1-228) was visualized by Western blot with Karet antibody.

For assay [2], the system named is PC12 cells. The assay is described as follows: Viability / death of PC12 cells after transfection with Karet constructs (Live/dead kit, FACS, cell counting, Hoechst). The class given is cell-based, rat. The conditions noted are these: PC12-necdin stable cells electroporated with Karet. The method, then: FIG. 5a is a bar-graph of FACS data depicting 50 percent death of PC12 cells overexpressing Karet. Shown is a FACS analysis of PC12 viability 15 hours after transfection with Ha-Karet or control vector using Live/dead kit (Molecular probes), T-test=0.003.
FIG. 5b is a series of fluorescence photomicrographs depicting death of PC12 cells caused by Karet overexpression. Shown is a live/dead kit analysis of PC12 cells overexpressing Ha-Karet (left panels) versus control vector-transfected cells (right panels). Live cell are stained in green, dead cells are stained in red. Upper panels each show red fluorescence only (left picture) and green fluorescence only (right picture) pairs, and lower panels each show combined red and green fluorescence (left picture) and light microscopy images (right picture) pairs. […]
FIG. 5e is a histogram depicting that Karet expression induces cell death of TrkA expressing cells, which is increased by NGF treatment and is decreased by necdin. […] Cells were counted and result presented as percent of control.
PC12 cells were transfected with Ha Karet, PTB, non PTB and their combinations. Cells were analyzed by FACS 18 hours after transfection using the dead/live kit. […]
The lower panel is a histogram depicting that Karet-mediated cell death correlates well with expression levels of the Karet protein. […] Cells were counted and the results were determined as percent of control. […]

Assay [3] has as its system PC12 cells. As to the kind of experiment: Effect of pathway proteins and inhibitors on Karet-induced cell death in PC12 cells. The class given is cell-based, rat. Particulars: co-electroporated with Karet into PC12, 12 hours.

Chain of 27 amino acid residue juxtamembrane region of TrkA (P04629 464-490 limits assumed): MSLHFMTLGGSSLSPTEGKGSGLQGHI

B1: Karet(1-228): N-terminal, PTB-domain-containing truncation mutant of mouse Karet, amino acid residues 1-228 (SEQ ID NO: 7) (protein, listed as Mus musculus)
chain: MEEEGKKGKKPGIVSPFKRVFLKGEKSRDKKAHEKVTERRPLHTVVLALPERVEPDRLLSDYIEKEVKYLGQLTSIPGYLNPSSRTEILHFIDKAKRSHQLPGHLTQEHDAVLSLSAYNVKLAWRDGEDIILRVPIHDIAAVSYVRDDAAHLVVLKTAQDPGISPSQSLCAESSRGLSAGSLSESAVGPVEACCLVIMATESKVAAEELCSLLSQVFQIVYTESTIDF
modifications: HA tag; N-terminal PTB-domain-containing, truncation mutant of the mouse Karet
Consider B1, for which the “co-immunoprecipitation / interaction with TrkA” value was “interacts with TrkA” with TrkA and “co-immunoprecipitated” in the assay on TrkA (listed as PTB domain alone). Besides, the “precipitation by immobilized TrkA peptide (SEQ ID NO: 10)” value in assay [1] is “precipitated by the TrkA peptide”.

B2: necdin: MAGE protein, interactor of the intracellular domain of p75 (protein)
chain: MSEQSKDLSDPNFAAEVPDCEMQDSDAVPVGIPPPASLAANLAGPPCAPEGPMAAQQASPPPEERIEDVDPKILQQAAEEGRAHQPQSPARPIPAPPAPAQLVQKAHELMWYVLVKDQKRMVLWFPDMVKEVMGSYKKWCRSILRRTSVILARVFGLHLRLTNLHTMEFALVKALSPEELDRVALNNRMPMTGLLLMILSLIYVKGRGAREGAVWNVLRILGLRPWKKHSTFGDVRKIITEEFVQQNYLKYQRVPHIEPPEYEFFWGSRANREITKMQIMEFLARVFKKDPQAWPSRYREALEQARALREANLAAQAPRSSVSED
As for B2, the “effect on the apoptotic effects of Karet” value with PC12 cells [2] is recorded as “attenuated somewhat the apoptotic effects of Karet”.

B3: JIP1: a Jnk scaffold and inhibitor (protein, UniProt Q9UQF2 1-711, looked up)
C-Jun-amino-terminal …: MAERESGGLGGGAASPPAASPFLGLHIASPPNFRLTHDISLEEFEDEDLSEITDECGISLQCKDTLSLRPPRAGLLSAGGGGAGSRLQAEMLQMDLIDATGDTPGAEDDEEDDDEERAARRPGAGPPKAESGQEPASRGQGQSQGQSQGPGSGDTYRPKRPTTLNLFPQVPRSQDTLNNNSLGKKHSWQDRVSRSSSPLKTGEQTPPHEHICLSDELPPQSGPAPTTDRGTSTDSPCRRSTATQMAPPGGPPAAPPGGRGHSHRDRIHYQADVRLEATEEIYLTPVQRPPDAAEPTSAFLPPTESRMSVSSDPDPAAYPSTAGRPHPSISEEEEGFDCLSSPERAEPPGGGWRGSLGEPPPPPRASLSSDTSALSYDSVKYTLVVDEHAQLELVSLRPCFGDYSDESDSATVYDNCASVSSPYESAIGEEYEEAPRPQPPACLSEDSTPDEPDVHFSKKFLNVFMSGRSRSSSAESFGLFSCIINGEEQEQTHRAIFRFVPRHEDELELEVDDPLLVELQAEDYWYEAYNMRTGARGVFPAYYAIEVTKEPEHMAALAKNSDWVDQFRVKFLGSVQVPYHKGNDVLCAAMQKIATTRRLTVHFNPPSSCVLEISVRGVKIGVKADDSQEAKGNKCSHFFQLKNISFCGYHPKNNKYFGFITKHPADHRFACHVFVSEDSTKALAESVGRAFQQFYKQFVEYTCPTEDIYLE
B3: in the assay on PC12 cells [3], the “effect on cell death induction by Karet” value is given as “did not affect cell death induction”.

B4: p35: a baculovirus caspase-8 and caspase-10 inhibitor (protein, UniProt P08160 1-299, looked up)
Early 35 kDa protein: MCVIFPVEIDVSQTIIRDCQVDKQTRELVYINKIMNTQLTKPVLMMFNISGPIRSVTRKNNNLRDRIKSKVDEQFDQLERDYSDQMDGFHDSIKYFKDEHYSVSCQNGSVLKSKFAKILKSHDYTDKKSIEAYEKYCLPKLVDERNDYYVAVCVLKPGFENGSNQVLSFEYNPIGNKVIVPFAHEINDTGLYEYDVVAYVDSVQFDGEQFEEFVQSLILPSSFKNSEKVLYYNEASKNKSMIYKALEFTTESSWGKSEKYNWKIFCNGFIYDKKSKVLYVKLHNVTSALNKNVILNTIK
Regarding B4, in the assay on PC12 cells [3], the “effect on cell death induction by Karet” value is “did not affect cell death induction”.
